Test results as given in article PMC8629194 (bioRxiv, 2021).

Target: wt ACE2_(615)-Fc (M27) (human, UniProt Q9BYF1 18-615)
Assay: SPR

Sequence of wt ACE2_(615)-Fc (M27) (Q9BYF1 18-615): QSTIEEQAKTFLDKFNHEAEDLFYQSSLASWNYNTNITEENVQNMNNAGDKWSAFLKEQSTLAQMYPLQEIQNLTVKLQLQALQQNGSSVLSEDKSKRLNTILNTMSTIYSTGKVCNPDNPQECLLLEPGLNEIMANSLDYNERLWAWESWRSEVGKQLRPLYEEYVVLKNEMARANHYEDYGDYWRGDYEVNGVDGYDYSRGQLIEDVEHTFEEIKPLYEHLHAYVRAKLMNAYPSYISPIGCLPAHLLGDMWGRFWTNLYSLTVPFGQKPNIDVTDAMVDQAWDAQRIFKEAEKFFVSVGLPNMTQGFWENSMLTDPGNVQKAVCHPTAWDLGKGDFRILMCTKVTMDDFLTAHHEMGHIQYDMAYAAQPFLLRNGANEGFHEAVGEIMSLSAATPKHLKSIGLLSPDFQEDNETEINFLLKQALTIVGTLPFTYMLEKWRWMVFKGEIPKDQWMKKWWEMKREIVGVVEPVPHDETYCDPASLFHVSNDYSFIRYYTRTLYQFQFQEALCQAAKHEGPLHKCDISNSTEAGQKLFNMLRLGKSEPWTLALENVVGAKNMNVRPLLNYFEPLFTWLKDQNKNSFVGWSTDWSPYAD

B1: SARS-CoV RBD (residue 306–577) (domain or fragment)
chain: not shown
- fold, affinity of RBDwt for M27 over that of SARS-CoV-1 RBD: ~5 fold
